Target: SARS-CoV-2 spike-protein trimers
Assay: SEC + other: negative-stain electron microscopy

Substance: SARS-CoV-2 spike-protein trimers
- stoichiometry N: 3

Reference: article PMC10197516
